Measured values reported in US20210230279A1 (University of California, published 2021).

Legend:
[1] = biological target: T1, recombinant human integrin αvβ8 (human, UniProt P06756 31-992; P26012 43-684); test: ELISA on coated recombinant human integrin; 0 = no apparent binding
T1 construct: also called Human Integrin alpha V beta 8; purified recombinant αvβ8
Text: (§1) Binding was quantified by intensity as 0-4 (0 representing no apparent binding; 4 representing robust binding) and results normalized to expression.

[2] = biological target: T2, recombinant human integrin αvβ1 (human, UniProt P05556 21-728); test: as above
T2 construct: Bought; also called αvβ1 (R&D systems)
Text: as §1

[3] = biological target: T3, recombinant human integrin αvβ3 (human, UniProt P05106 27-718); test: as above
T3 construct: Bought; also called αvβ3 (R&D systems)
Text: as §1

[4] = biological target: T4, recombinant human integrin αvβ5 (human, UniProt P18084 24-719); test: as above
T4 construct: Bought; also called αvβ5 (R&D systems)
Text: as §1

[5] = biological target: T5, recombinant human integrin αvβ6 (human, UniProt P18564 22-707); test: ELISA: integrin coated on plate, supernatant of transfected 293 cells at 1/10 dilution, anti-mouse IgG-HRP; score normalized to expression;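 also: scale runs from 0 (no apparent binding) to 4 (robust binding), with scores adjusted for clone protein expression as determined by a murine IgG ELISA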
T5 construct: also called αvβ6 (R&D systems); αvβ6 receptor
Text: as §1

[6] = biological target: T1, recombinant human integrin αvβ8; test: as above
Text: as §1

[7] = biological target: T3, recombinant human integrin αvβ3; test: as above
Text: as §1

[8] = biological target: T1, recombinant human integrin αvβ8; test: scFv yeast display selection
[9] = biological target: T5, recombinant human integrin αvβ6; test: ELISA on coated recombinant human integrin; 0 = no apparent binding
Text: as §1

T2 sequence (chain, as listed by the source limits assumed, chain 1 of 2): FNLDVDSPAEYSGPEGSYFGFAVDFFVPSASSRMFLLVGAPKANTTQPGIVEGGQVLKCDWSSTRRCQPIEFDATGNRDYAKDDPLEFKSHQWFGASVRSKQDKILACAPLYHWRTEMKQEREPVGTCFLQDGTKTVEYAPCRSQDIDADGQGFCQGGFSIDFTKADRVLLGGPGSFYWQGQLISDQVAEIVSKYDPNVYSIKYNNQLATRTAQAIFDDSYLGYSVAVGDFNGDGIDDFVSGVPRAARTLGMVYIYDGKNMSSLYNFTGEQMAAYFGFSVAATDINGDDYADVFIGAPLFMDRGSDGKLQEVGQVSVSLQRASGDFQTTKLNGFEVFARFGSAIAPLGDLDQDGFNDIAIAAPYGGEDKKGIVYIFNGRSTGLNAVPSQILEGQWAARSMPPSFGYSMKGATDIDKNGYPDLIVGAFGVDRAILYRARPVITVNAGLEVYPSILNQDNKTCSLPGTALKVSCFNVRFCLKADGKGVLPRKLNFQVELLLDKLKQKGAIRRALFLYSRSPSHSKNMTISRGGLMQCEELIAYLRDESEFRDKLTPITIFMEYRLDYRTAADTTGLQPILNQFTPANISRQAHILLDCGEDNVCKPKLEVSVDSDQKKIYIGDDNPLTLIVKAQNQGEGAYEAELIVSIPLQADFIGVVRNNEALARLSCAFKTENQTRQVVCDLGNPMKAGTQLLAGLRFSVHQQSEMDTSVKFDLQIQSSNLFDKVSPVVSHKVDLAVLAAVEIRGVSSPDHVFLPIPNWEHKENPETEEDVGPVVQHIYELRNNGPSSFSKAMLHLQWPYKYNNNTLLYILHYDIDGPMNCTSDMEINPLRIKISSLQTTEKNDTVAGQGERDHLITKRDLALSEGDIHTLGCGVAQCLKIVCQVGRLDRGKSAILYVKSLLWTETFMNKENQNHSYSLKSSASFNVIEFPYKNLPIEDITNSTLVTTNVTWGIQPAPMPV
T2 sequence (P05556 21-728 limits assumed, chain 2 of 2): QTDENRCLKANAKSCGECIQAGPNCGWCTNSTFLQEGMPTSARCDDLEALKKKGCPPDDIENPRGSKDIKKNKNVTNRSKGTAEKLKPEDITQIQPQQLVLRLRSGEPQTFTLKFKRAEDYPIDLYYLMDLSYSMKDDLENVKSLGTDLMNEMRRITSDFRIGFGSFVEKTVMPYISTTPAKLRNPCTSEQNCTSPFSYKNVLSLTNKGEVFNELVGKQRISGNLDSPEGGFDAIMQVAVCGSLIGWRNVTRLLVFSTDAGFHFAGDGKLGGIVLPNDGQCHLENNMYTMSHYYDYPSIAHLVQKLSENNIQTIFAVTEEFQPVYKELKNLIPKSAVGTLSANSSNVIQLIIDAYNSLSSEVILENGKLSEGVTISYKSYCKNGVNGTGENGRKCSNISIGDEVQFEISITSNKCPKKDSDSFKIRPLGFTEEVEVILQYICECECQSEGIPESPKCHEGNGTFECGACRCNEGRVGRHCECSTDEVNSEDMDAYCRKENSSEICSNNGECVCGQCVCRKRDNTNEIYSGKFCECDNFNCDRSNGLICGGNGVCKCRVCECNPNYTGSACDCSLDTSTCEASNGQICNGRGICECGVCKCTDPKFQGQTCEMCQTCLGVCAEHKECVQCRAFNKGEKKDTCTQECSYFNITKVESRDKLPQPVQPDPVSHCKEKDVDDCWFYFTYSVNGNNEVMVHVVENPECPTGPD
T1 sequence (P06756 31-992 limits assumed, chain 1 of 2): as the sequence (chain, as listed by the source limits assumed, chain 1 of 2) above
T1 sequence (P26012 43-684 limits assumed, chain 2 of 2): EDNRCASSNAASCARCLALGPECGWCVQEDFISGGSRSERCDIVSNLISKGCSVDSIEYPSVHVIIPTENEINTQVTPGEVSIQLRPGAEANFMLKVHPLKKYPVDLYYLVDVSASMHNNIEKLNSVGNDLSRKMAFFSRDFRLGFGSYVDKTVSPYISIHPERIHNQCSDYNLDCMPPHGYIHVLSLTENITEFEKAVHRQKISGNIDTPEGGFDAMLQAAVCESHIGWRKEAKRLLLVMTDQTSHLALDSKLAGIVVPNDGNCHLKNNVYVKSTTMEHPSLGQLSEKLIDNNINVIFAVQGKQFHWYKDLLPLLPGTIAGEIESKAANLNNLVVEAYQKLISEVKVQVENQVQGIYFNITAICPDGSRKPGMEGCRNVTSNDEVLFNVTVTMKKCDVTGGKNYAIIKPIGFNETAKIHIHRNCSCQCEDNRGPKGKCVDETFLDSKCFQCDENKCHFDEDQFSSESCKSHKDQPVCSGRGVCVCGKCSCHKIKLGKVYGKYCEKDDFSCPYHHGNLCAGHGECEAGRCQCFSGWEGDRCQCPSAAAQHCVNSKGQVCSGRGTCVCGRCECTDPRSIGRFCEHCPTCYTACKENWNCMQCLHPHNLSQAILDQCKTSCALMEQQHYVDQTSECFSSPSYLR
T5 sequence (chain, as listed by the source limits assumed, chain 1 of 2): as the sequence (chain, as listed by the source limits assumed, chain 1 of 2) above
T5 sequence (P18564 22-707 limits assumed, chain 2 of 2): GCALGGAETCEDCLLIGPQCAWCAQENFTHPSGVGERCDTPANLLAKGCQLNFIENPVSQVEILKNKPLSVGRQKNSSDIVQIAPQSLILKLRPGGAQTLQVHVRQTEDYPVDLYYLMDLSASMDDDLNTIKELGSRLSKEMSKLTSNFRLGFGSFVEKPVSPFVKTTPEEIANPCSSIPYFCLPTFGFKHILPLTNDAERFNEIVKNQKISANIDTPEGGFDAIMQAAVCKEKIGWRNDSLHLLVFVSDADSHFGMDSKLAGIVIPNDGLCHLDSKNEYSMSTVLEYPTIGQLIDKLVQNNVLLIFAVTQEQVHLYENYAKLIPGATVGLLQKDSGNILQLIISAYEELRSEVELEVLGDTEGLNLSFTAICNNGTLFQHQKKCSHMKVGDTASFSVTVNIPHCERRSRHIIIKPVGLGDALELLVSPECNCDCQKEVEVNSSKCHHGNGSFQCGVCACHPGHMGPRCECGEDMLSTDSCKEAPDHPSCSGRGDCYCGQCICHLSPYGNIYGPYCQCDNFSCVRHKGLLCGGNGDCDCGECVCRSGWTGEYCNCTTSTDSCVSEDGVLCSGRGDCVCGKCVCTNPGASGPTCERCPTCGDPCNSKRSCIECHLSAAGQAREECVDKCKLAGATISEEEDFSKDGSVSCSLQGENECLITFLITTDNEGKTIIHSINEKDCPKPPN
T3 sequence (chain, as listed by the source limits assumed, chain 1 of 2): as the sequence (chain, as listed by the source limits assumed, chain 1 of 2) above
T3 sequence (P05106 27-718 limits assumed, chain 2 of 2): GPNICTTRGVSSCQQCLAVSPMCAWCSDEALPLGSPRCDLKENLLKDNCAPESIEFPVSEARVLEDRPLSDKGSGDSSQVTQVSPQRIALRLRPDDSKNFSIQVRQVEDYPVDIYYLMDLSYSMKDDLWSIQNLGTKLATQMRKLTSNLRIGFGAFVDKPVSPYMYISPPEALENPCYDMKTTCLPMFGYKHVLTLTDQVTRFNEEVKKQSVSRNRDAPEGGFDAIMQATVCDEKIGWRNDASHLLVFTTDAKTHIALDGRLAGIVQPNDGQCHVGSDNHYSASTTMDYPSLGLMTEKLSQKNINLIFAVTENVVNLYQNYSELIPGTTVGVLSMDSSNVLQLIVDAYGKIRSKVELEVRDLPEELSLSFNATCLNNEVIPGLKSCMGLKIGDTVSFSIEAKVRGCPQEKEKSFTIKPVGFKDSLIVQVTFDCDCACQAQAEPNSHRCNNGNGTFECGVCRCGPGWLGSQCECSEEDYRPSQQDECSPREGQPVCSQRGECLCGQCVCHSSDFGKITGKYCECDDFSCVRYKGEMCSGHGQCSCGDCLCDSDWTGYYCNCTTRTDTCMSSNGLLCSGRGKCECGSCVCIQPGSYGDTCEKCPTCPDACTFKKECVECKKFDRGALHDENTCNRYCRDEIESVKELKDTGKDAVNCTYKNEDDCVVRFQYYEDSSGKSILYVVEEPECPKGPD
T4 sequence (chain, as listed by the source limits assumed, chain 1 of 2): as the sequence (chain, as listed by the source limits assumed, chain 1 of 2) above
T4 sequence (P18084 24-719 limits assumed, chain 2 of 2): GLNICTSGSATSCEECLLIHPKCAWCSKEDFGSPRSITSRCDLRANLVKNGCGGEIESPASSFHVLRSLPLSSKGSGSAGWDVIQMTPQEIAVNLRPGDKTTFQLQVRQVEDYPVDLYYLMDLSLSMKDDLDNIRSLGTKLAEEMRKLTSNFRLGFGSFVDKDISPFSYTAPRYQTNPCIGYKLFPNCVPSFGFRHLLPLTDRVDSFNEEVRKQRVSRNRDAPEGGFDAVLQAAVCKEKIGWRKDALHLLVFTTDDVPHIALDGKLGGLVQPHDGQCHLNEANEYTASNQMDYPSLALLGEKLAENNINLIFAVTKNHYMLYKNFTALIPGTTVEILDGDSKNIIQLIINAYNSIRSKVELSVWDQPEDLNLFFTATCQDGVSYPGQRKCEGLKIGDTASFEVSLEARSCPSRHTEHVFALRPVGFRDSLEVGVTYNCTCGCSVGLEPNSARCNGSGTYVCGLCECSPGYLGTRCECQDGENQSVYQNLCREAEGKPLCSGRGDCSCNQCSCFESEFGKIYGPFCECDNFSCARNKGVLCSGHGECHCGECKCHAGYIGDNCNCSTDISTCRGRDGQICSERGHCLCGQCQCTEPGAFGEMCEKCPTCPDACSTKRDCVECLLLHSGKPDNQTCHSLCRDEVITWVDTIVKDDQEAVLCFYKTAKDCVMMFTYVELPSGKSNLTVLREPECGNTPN

Binder | binding intensity score (0-4) [5] [score 0-4] | binding intensity score (0-4) [6] [score 0-4] | binding intensity score (0-4) [7] [score 0-4] | binding result [8] | binding result [1] | binding result [2] | binding result [3] | binding result [4] | binding result [9]
C6 VH / RGD3-10 Vk murine IgG (antibody, V domains shown, Murine IgG, supernatant of 293 cells; CDRL1 swap into the C6D4 murine IgG vector, VH not altered; also called C6RGD3-10) VH: QIQLLQSGPELKKPGETVKISCKASGYTFTDYSMHWVKQAPGKGLKWVARINTETGEPTFADDFRGRFAVSLETSASTAYLQINNLKNEDTATYFCAIFYYGRDSWGQGTTLTVSS VL: DIVMTQSPSSLAVSAGEKVTMSCKSSQSLLGRGDLGRLKKQKDHWYQQKPGQSPRLLIYWASTRESGVPDRFTGSGSGTDFTLTISSVQAEDLAVYYCKQSYNLLSFGAGTKLELKR | 1 |  |  |  | no binding (tested: supernatant at 1/10 dilution) | no binding (tested: supernatant at 1/10 dilution) | no binding (tested: supernatant at 1/10 dilution) | no binding (tested: supernatant at 1/10 dilution) | 
C6 VH / RGD3-7 Vk murine IgG (antibody, V domains shown, Murine IgG, supernatant of 293 cells; CDRL1 swap into the C6D4 murine IgG vector, VH not altered; also called C6RGD3-7) VH: QIQLLQSGPELKKPGETVKISCKASGYTFTDYSMHWVKQAPGKGLKWVARINTETGEPTFADDFRGRFAVSLETSASTAYLQINNLKNEDTATYFCAIFYYGRDSWGQGTTLTVSS VL: DIVMTQSPSSLAVSAGEKVTMSCKSSQSLLGRGDLGRLNALAWYQQKPGQSPRLLIYWASTRESGVPDRFTGSGSGTDFTLTISSVQAEDLAVYYCKQSYNLLSFGAGTKLELKR | 2 | 2 | 4 |  |  | no binding (tested: supernatant at 1/10 dilution) |  | no binding (tested: supernatant at 1/10 dilution) | 
C6 VH / RGD3-8 Vk murine IgG (antibody, V domains shown, Murine IgG, supernatant of 293 cells; CDRL1 swap into the C6D4 murine IgG vector, VH not altered; also called C6RGD3-8) VH: QIQLLQSGPELKKPGETVKISCKASGYTFTDYSMHWVKQAPGKGLKWVARINTETGEPTFADDFRGRFAVSLETSASTAYLQINNLKNEDTATYFCAIFYYGRDSWGQGTTLTVSS VL: DIVMTQSPSSLAVSAGEKVTMSCKSSQSLLGRGDLGRNALAWYQQKPGQSPRLLIYWASTRESGVPDRFTGSGSGTDFTLTISSVQAEDLAVYYCKQSYNLLSFGAGTKLELKR | 3 | 3 | 3 |  |  | no binding (tested: supernatant at 1/10 dilution) |  | no binding (tested: supernatant at 1/10 dilution) | 
C6 VH / RGD3-2 Vk murine IgG (antibody, V domains shown, Murine IgG, supernatant of 293 cells; CDRL1 swap into the C6D4 murine IgG vector, VH not altered; also called C6RGD3-2) VH: QIQLLQSGPELKKPGETVKISCKASGYTFTDYSMHWVKQAPGKGLKWVARINTETGEPTFADDFRGRFAVSLETSASTAYLQINNLKNEDTATYFCAIFYYGRDSWGQGTTLTVSS VL: DIVMTQSPSSLAVSAGEKVTMSCKSSQSLLGRGDLGRLKKQKDNALAWYQQKPGQSPRLLIYWASTRESGVPDRFTGSGSGTDFTLTISSVQAEDLAVYYCKQSYNLLSFGAGTKLELKR | 4 | 4 |  |  |  | no binding (tested: supernatant at 1/10 dilution) | no binding (tested: supernatant at 1/10 dilution) | no binding (tested: supernatant at 1/10 dilution) | 
clone 44 (scFv, yeast display) (scFv, V domains shown, scFv on yeast) VH: QIQLLQSGPELKKPGETVKISCKASGYTFTDYSMHWVKQAPGKGLKWVARINTETGEPTFADDFRGRFAVSLETSASTAYLQINNLKNEDTATYFCAIYYYGRDSWGQGTTLTVSS VL: DIVMSQSPSSLAVSAGEKVTMSCKSSQSLLNSRTRKNYLAWYQQKPGQSPRLLIYWASTRESGVPDRFTGSGSGTDFTLTISSVQDEDLAVYYCKQSYNLLTFGAGTKLELKA |  |  |  | binds |  |  |  |  | 
C6 VH / RGD1 Vk murine IgG (antibody, V domains shown, Murine IgG, supernatant of 293 cells; CDRL1 swap into the C6D4 murine IgG vector, VH not altered; also called C6D4-RGD1; C6RGD1) VH: QIQLLQSGPELKKPGETVKISCKASGYTFTDYSMHWVKQAPGKGLKWVARINTETGEPTFADDFRGRFAVSLETSASTAYLQINNLKNEDTATYFCAIFYYGRDSWGQGTTLTVSS VL: DIVMTQSPSSLAVSAGEKVTMSCKSSQSLLGRGDLGNALAWYQQKPGQSPRLLIYWASTRESGVPDRFTGSGSGTDFTLTISSVQAEDLAVYYCKQSYNLLSFGAGTKLELKR |  | 1 |  |  |  | no binding (tested: supernatant at 1/10 dilution) | no binding (tested: supernatant at 1/10 dilution) | no binding (tested: supernatant at 1/10 dilution) | no binding (tested: supernatant at 1/10 dilution)
clone 29 (scFv, yeast display) (scFv, V domains shown, scFv on yeast) VH: QIQLLQSGPELKKPGETVKISCKASGYTFTDYSMHWVKQAPGKGLKWVARINTETGEPTFADDFRGRFAVSLETSASTAYLQINNLKNEDTATYFCAIYYYGRDSWGQGTTLTVSS VL: DIVMSQSPSSLAVSAGEKVTMSCKSSQSLLNSRTRKNYLAWYQQKPGQSPRLLIYWASTRESGVPDRFTGSGSGTDFTLTISSVQAEDLAVYYCKQSYNLLTFGAGTKLELKA |  |  |  | binds |  |  |  |  | 

The next lines start with results.

binding intensity score (0-4) [5] [score 0-4] | binding intensity score (0-4) [6] [score 0-4] | binding intensity score (0-4) [7] [score 0-4] | binding result [8] | Binder | binding result [1] | binding result [2] | binding result [3] | binding result [4] | binding result [9]
2 |  | 1 |  | C6 VH / RGD3-12 Vk murine IgG (antibody, V domains shown, Murine IgG, supernatant of 293 cells; CDRL1 swap into the C6D4 murine IgG vector, VH not altered; also called C6RGD3-12) VH: QIQLLQSGPELKKPGETVKISCKASGYTFTDYSMHWVKQAPGKGLKWVARINTETGEPTFADDFRGRFAVSLETSASTAYLQINNLKNEDTATYFCAIFYYGRDSWGQGTTLTVSS VL: DIVMTQSPSSLAVSAGEKVTMSCKSSQSLLGRGDLGRLKKQKWYQQKPGQSPRLLIYWASTRESGVPDRFTGSGSGTDFTLTISSVQAEDLAVYYCKQSYNLLSFGAGTKLELKR | no binding (tested: supernatant at 1/10 dilution) | no binding (tested: supernatant at 1/10 dilution) |  | no binding (tested: supernatant at 1/10 dilution) | 
 | 2 |  |  | C6 VH / RGD2 Vk murine IgG (antibody, V domains shown, Murine IgG, supernatant of 293 cells; CDRL1 of the C6D4 murine IgG vector replaced by the printed loop, VH not altered; also called C6D4-RGD2; C6RGD2) VH: QIQLLQSGPELKKPGETVKISCKASGYTFTDYSMHWVKQAPGKGLKWVARINTETGEPTFADDFRGRFAVSLETSASTAYLQINNLKNEDTATYFCAIFYYGRDSWGQGTTLTVSS VL: DIVMTQSPSSLAVSAGEKVTMSCKSSQSLLNSGRGDLGNALAWYQQKPGQSPRLLIYWASTRESGVPDRFTGSGSGTDFTLTISSVQAEDLAVYYCKQSYNLLSFGAGTKLELKR |  | no binding (tested: supernatant at 1/10 dilution) | no binding (tested: supernatant at 1/10 dilution) | no binding (tested: supernatant at 1/10 dilution) | no binding (tested: supernatant at 1/10 dilution)
3 |  |  |  | C6 VH / RGD3-9 Vk murine IgG (antibody, V domains shown, Murine IgG, supernatant of 293 cells; CDRL1 swap into the C6D4 murine IgG vector, VH not altered; also called C6RGD3-9) VH: QIQLLQSGPELKKPGETVKISCKASGYTFTDYSMHWVKQAPGKGLKWVARINTETGEPTFADDFRGRFAVSLETSASTAYLQINNLKNEDTATYFCAIFYYGRDSWGQGTTLTVSS VL: DIVMTQSPSSLAVSAGEKVTMSCKSSQSLLGRGDLGRLKKQKDHHWYQQKPGQSPRLLIYWASTRESGVPDRFTGSGSGTDFTLTISSVQAEDLAVYYCKQSYNLLSFGAGTKLELKR | no binding (tested: supernatant at 1/10 dilution) | no binding (tested: supernatant at 1/10 dilution) | no binding (tested: supernatant at 1/10 dilution) | no binding (tested: supernatant at 1/10 dilution) | 
